Data reported in US20170015742A1 (published 2017).

Legend:
[1] = biological target: recombinant human PDGF-BB (human, UniProt P01127 82-190); assay: cell-based or functional assay
[2] = biological target: recombinant human VEGF165 (human, UniProt P15692 207-395); assay: cell-based or functional assay
Chain of recombinant human VEGF165 (P15692 other isoform, or with tags, fused parts or gaps limits assumed): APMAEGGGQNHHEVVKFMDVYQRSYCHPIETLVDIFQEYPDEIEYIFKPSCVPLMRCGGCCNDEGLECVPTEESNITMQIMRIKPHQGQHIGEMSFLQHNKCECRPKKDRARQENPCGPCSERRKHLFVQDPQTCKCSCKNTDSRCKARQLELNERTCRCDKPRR

Chain of recombinant human PDGF-BB (P01127 82-190 limits assumed): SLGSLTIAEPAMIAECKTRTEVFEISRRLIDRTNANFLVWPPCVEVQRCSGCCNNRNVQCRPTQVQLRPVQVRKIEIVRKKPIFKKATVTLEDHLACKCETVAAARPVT

Potency IC50 (nM) NIH-3T3 hPDGF-BB [1] | Potency IC50 (nM) HMVEC-d hVEGF165 [2] | Binder
0.213 nM | 0.132 nM | 9E8.4_GS_9E10.6 (bispecific antibody, human IgG1, kappa, L234A L235A) heavy: EVTLRESGPALVKPTQTLTLTCTFSGFSLSTYGMGVGWIRQPPGKALEWLANIWWDDDKYYNPSLKNRLTISKDTSKNQVVLTMTNMDPVDTATYYCARIESIGTTYSFDYWGQGTMVTVSSGGGGSGGGGSEVQLVQSGAEVKKPGSSVKVSCKASGYTFTNYGMYWVRQAPGQGLEWMGWIDTETGRPTYADDFKGRFTFTADKSTSTAYMELSSLRSEDTAVYYCARWSGDTTGIRGPWFAYWGQGTLVTVSSASTKGPSVFPLAPSSKSTSGGTAALGCLVKDYFPEPVTVSWNSGALTSGVHTFPAVLQSSGLYSLSSVVTVPSSSLGTQTYICNVNHKPSNTKVDKKVEPKSCDKTHTCPPCPAPEAAGGPSVFLFPPKPKDTLMISRTPEVTCVVVDVSHEDPEVKFNWYVDGVEVHNAKTKPREEQYNSTYRVVSVLTVLHQDWLNGKEYKCKVSNKALPAPIEKTISKAKGQPREPQVYTLPPSREEMTKNQVSLTCLVKGFYPSDIAVEWESNGQPENNYKTTPPVLDSDGSFFLYSKLTVDKSRWQQGNVFSCSVMHEALHNAYTQKSLSLSPGK light: EFVLTQSPGTLSLSPGERATLSCERSSGDIGDSYVSWYQQKPGQAPRLVIYADDQRPSGIPDRFSGSGSGTDFTLTISRLEPEDFAVYYCQSYDINIDIVFGGGTKVEIKGGSGGGGSGGDIRMTQSPSSLSASVGDRVTITCLASEDIYSDLAWYQQKPGKSPKLLIYNANGLQNGVPSRFSGSGSGTDYTLTISSLQPEDVATYFCQQYNYFPGTFGQGTKLEIKRTVAAPSVFIFPPSDEQLKSGTASVVCLLNNFYPREAKVQWKVDNALQSGNSQESVTEQDSKDSTYSLSSTLTLSKADYEKHKVYACEVTHQGLSSPVTKSFNRGEC
0.109 nM | 0.391 nM | 9E8.4_GS_1B10.1 (bispecific antibody, human IgG1, kappa, L234A L235A) heavy: EVTLRESGPALVKPTQTLTLTCTFSGFSLSTYGMGVGWIRQPPGKALEWLANIWWDDDKYYNPSLKNRLTISKDTSKNQVVLTMTNMDPVDTATYYCARIESIGTTYSFDYWGQGTMVTVSSGGGGSGGGGSEVQLVESGGGLVQPGGSLRLSCAASGFSFSKYDMAWFRQAPGKGLEWVASITTSGVGTYYRDSVKGRFTVSRDNAKSTLYLQMNSLRAEDTAVYYCARGYGAMDAWGQGTTVTVSSASTKGPSVFPLAPSSKSTSGGTAALGCLVKDYFPEPVTVSWNSGALTSGVHTFPAVLQSSGLYSLSSVVTVPSSSLGTQTYICNVNHKPSNTKVDKKVEPKSCDKTHTCPPCPAPEAAGGPSVFLFPPKPKDTLMISRTPEVTCVVVDVSHEDPEVKFNWYVDGVEVHNAKTKPREEQYNSTYRVVSVLTVLHQDWLNGKEYKCKVSNKALPAPIEKTISKAKGQPREPQVYTLPPSREEMTKNQVSLTCLVKGFYPSDIAVEWESNGQPENNYKTTPPVLDSDGSFFLYSKLTVDKSRWQQGNVFSCSVMHEALHNAYTQKSLSLSPGK light: EFVLTQSPGTLSLSPGERATLSCERSSGDIGDSYVSWYQQKPGQAPRLVIYADDQRPSGIPDRFSGSGSGTDFTLTISRLEPEDFAVYYCQSYDINIDIVFGGGTKVEIKGGSGGGGSGGDIQMTQSPSSLSASVGDRVTITCKASQDIDDYLSWYQQKPGKSPKLVIYAATRLADGVPSRFSGSGSGTDYTLTISSLQPEDFATYYCLQSSSTPWTFGGGTKVEIKRTVAAPSVFIFPPSDEQLKSGTASVVCLLNNFYPREAKVQWKVDNALQSGNSQESVTEQDSKDSTYSLSSTLTLSKADYEKHKVYACEVTHQGLSSPVTKSFNRGEC
